Reference: patent US6399759 (UNIVERSITY OF GEORGIA RESEARCH FOUNDATION, dated 2002)

How the values were obtained:
Test in all cases: cell-based or functional assay
Soli C1 = Soli C1 (Solenopsis invicta)
Soli C2 = Soli C2 (Solenopsis invicta)
Soli E1 = Soli E1 (Solenopsis invicta)
Soli E2 = target: T1, Soli E2 (Solenopsis invicta)
T1 chain: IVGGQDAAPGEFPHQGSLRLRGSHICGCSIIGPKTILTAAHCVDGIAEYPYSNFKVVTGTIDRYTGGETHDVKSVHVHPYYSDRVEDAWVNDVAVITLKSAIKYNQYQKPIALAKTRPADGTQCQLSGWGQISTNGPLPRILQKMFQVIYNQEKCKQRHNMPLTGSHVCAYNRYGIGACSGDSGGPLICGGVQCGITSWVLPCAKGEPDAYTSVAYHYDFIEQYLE

Soli C1 (Solenopsis invicta), sequence (Q7SIG2 other isoform, or with tags, fused parts or gaps): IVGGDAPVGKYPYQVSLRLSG
Soli E1 (Solenopsis invicta), sequence (main, as listed by the source): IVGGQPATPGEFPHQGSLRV
Soli C2 (Solenopsis invicta), sequence (main, as listed by the source): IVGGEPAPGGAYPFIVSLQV

B1: Lima Bean Trypsin Inhibitor (other, UniProt P01056 1-83, looked up)
chain: SGHHEHSTDXPSXSSKPCCXHCACTKSIPPQCRCTDLRLDSCHSACKSCICTLSIPAQCVCXXIXDFCYEPCKSSHSDDDNNN
modifications: not fully specified
- IC50 (Soli C1): 18.4 nM
- IC50 (Soli C2): 1.46 nM
- IC50 (Soli E1): > 50 nM
- IC50 (Soli E2): > 50 nM
